The chains are these.
B1: H240-Kn061/H240-Hl071/L73-k0 variant with V240F introduced into H240-Hl071 (antibody, human IgG1, kappa)
heavy 1: QDQLVQSGAEVKKPGASVKVSCKASGFNIKDTYIQWVRQAPGQGLEWMGRIDPLRKQTKYREKFEGRVTITADTSTNTAYMELSSLRSEDTAVYYCVRSGREFDYWGQGTLVTVSSASTKGPSVFPLAPSSKSTSGGTAALGCLVKDYFPEPVTVSWNSGALTSGVHTFPAVLQSSGLYSLSSVVTVPSSSLGTQTYICNVNHKPSNTKVDKKVEPKSCDKTHTCPPCPAPEYYWGPSVFLFPPKPKDTLMISRTPEVTCVVVDVSDEDPEVKFNWYVDGVEVHNAKTKPREEQYNATYRVVSVLTVLHQDWLNGKEYKCKVSNKALPAPIEKTISKAKGQPREPQVCTLPPSRDELTKNQVSLWCLVKGFYPSDIAVEWESNGQPENNYKTTPPVLDSDGSFFLYSKLTVDKSRWQQGNVFSCSVMHEALHNHYTQKSLSLSP
heavy 2: QDQLVQSGAEVKKPGASVKVSCKASGFNIKDTYIQWVRQAPGQGLEWMGRIDPLRKQTKYREKFEGRVTITADTSTNTAYMELSSLRSEDTAVYYCVRSGREFDYWGQGTLVTVSSASTKGPSVFPLAPSSKSTSGGTAALGCLVKDYFPEPVTVSWNSGALTSGVHTFPAVLQSSGLYSLSSVVTVPSSSLGTQTYICNVNHKPSNTKVDKKVEPKSCDKTHTCPPCPAPELLGGPSFFLFPPKPKDTLMISRTPEVTCVVVDVSHEDPEVKFNWYVDGVEVHNAKTKPREEQYNSTYRVVSVLTVLHQDWLNGKEYKCKVSNDALPMPIEETISKAKGQPREPQVYTLPPSRCELTKNQVSLSCAVKGFYPSDIAVEWESNGQPENNYKTTPPVLDSDGSFFLVSKLTVDKSRWQQGNVFSCSVMHEALHNHYTQKSLSLSP
light: DIQMTQSPSSLSASVGDRVTITCRASQDIHKYIAWYQQKPGQAPRLLIQYTSTLQPGVPSRFSGSGSGTDYTFTISSLQPEDIATYYCLQYEQLRTFGGGTKVEIKRTVAAPSVFIFPPSDEQLKSGTASVVCLLNNFYPREAKVQWKVDNALQSGNSQESVTEQDSKDSTYSLSSTLTLSKADYEKHKVYACEVTHQGLSSPVTKSFNRGEC
notes: Point variant made with H240-Kn061/H240-Hl071/L73-k0 as template; position by EU numbering; also called H240-Hl071 V240F
B2: H240-Kn061/H240-Hl071/L73-k0 variant with Y234E introduced into H240-Kn061 (antibody, human IgG1, kappa)
heavy 1: B1 heavy 1 with Y233E
heavy 2: B1 heavy 2 with F239V
light: B1 light
notes: Point variant made with H240-Kn061/H240-Hl071/L73-k0 as template; position by EU numbering; also called H240-Kn061 Y234E
B3: H240-Kn061/H240-Hl071/L73-k0 variant with Y235N introduced into H240-Kn061 (antibody, human IgG1, kappa)
heavy 1: B1 heavy 1 with Y234N
heavy 2: B1 heavy 2 with F239V
light: B1 light
notes: Point variant made with H240-Kn061/H240-Hl071/L73-k0 as template; position by EU numbering; also called H240-Kn061 Y235N
B4: H240-Kn037/H240-Hl036/L73-k0 (antibody, human IgG1, kappa)
heavy 1: B1 heavy 1 with Y233L, Y234L, W235A, S238D, D267H, A297S, I331E
heavy 2: B1 heavy 2 with G235A, S238D, F239V, D325K, M329A, I331E, E333K
light: B1 light
notes: this is a derivation
B5: H240-Kn120/H240-Hl068/L73-k0 (antibody, human IgG1, kappa)
heavy 1: B1 heavy 1 with S238M, A326D
heavy 2: B1 heavy 2 with F239V, D269E, M329K
light: B1 light
notes: Heterodimerized anti-EREG IgG1: Kn120 is H240-Kn067 with S239M
B6: H240-Kn126/H240-Hl068/L73-k0 (antibody, human IgG1, kappa)
heavy 1: B1 heavy 1 with Y234Q, S238M, A326D
heavy 2: B1 heavy 2 with F239V, D269E, M329K
light: B1 light
notes: Heterodimerized anti-EREG IgG1: Kn126 is H240-Kn120 with Y235Q

Residue numbers refer to the chain shown, from its start. Numbers in names are those of the source.

T6 sequence (P12314 16-292): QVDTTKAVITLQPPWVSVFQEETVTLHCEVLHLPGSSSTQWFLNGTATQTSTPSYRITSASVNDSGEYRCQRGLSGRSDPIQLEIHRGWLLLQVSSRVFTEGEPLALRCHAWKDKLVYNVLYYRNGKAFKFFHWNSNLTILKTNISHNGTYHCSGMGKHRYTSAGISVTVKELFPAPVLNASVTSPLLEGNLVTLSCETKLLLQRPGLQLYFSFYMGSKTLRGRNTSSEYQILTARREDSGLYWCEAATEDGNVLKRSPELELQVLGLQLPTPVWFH
T11 sequence (P08637 17-208 F176V limits assumed): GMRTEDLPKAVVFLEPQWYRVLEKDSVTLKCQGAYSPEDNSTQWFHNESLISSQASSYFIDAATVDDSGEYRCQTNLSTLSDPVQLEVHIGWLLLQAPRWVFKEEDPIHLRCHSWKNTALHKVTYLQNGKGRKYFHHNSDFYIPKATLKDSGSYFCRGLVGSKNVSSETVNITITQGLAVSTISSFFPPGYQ
T5 sequence (P08637 17-208 F176V): as the sequence (P08637 17-208 F176V limits assumed) above

One assay has as its target T1, FcgRIIa R extracellular domain with C-terminal His tag (human, UniProt P12318 34-217).
T1 construct: extracellular domain; also called FcγRIIa R; FcγRIIa type R; not shown: His tag attached to the C terminus
T1 sequence (looked up): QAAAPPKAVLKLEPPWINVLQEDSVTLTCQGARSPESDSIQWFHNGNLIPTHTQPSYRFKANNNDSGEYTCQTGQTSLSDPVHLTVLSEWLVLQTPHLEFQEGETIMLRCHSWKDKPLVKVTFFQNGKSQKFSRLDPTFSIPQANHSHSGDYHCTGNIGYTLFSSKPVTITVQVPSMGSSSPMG
The experiment in a line: SPR (Biacore) KD ratio against the template H240-Kn061/H240-Hl071/L73-k0. As to the method:
(§1) The antibodies were assessed for the binding to each FcgR. […] The resultant value was defined as relative KD, and used as an assessment indicator.
(§2) Analysis of interaction between obj ective antibody and the FcγR was carried out using Biacore T100 (GE Healthcare), Biacore T200, Biacore A100, and Biacore 4000. HBS-EP+ (GE Healthcare) was used as the running buffer, and the measurement temperature was set to 25° C. Chips produced by immobilizing the antigen peptide by the amine coupling method to a Series S sensor Chip CM5 (GE Healthcare), chips produced by allowing preliminarily biotinylated antigen peptides to interact with and immobilize onto a Series S Sensor Chip SA (certified) (GE Healthcare), chips produced by immobilizing Protein L (ACTIGEN, BioVision) to Series S Sencor Chip CM5 (GE Healthcare), or chips produced by immobilizing Protein A/G (Thermo Scientific) to Series S Sencor Chip CM5 (GE Healthcare) were used. Antibodies of interest were captured onto these chips, and allowed to interact to each FcγR diluted with running buffer.
A general note: In SPR one partner is held on a chip, and binding of the other changes the refractive index at the surface.
In the case of B1, the “relative KD (KD of H240-Kn061/H240-Hl071/L73-k0 / KD of variant)” value is 1.1.
B2: the “relative KD (KD of H240-Kn061/H240-Hl071/L73-k0 / KD of variant)” value stood at 1.4.
With B3, the “relative KD (KD of H240-Kn061/H240-Hl071/L73-k0 / KD of variant)” value amounted to 1.

The target in another assay is T2, FcgRIIa H extracellular domain with C-terminal His tag (human, UniProt P12318 34-217).
T2 construct: extracellular domain; also called FcγRIIa H; FcγRIIa type H; not shown: His tag attached to the C terminus
T2 sequence (looked up): T1 sequence (looked up) with R134H
Described as above. Here is the method: as §1, §2
Take B1: the “relative KD (KD of H240-Kn061/H240-Hl071/L73-k0 / KD of variant)” value turned out to be 0.9.
The same measure, in the same setting: the same measure for B2: 0.7; for B3: 0.7.

The target of another assay is T3, FcgRIIb extracellular domain with C-terminal His tag (human, UniProt P31994 43-217).
T3 construct: extracellular domain; also called FcγRIIb; not shown: His tag attached to the C terminus
T3 sequence (looked up): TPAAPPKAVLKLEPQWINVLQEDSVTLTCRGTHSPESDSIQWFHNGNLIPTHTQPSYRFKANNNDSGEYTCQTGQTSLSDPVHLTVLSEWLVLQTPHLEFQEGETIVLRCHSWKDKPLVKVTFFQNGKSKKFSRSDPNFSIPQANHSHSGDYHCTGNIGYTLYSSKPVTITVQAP
The description is as above. As to the method: as §1, §2
Consider B1, for which the “relative KD (KD of H240-Kn061/H240-Hl071/L73-k0 / KD of variant)” value was 0.9.
As to B2, the “relative KD (KD of H240-Kn061/H240-Hl071/L73-k0 / KD of variant)” value was 0.5.
Same read-out and setting: the same measure for B3: 0.7.

In a further assay the target is T4, FcgRIIIa F extracellular domain with C-terminal His tag (human, UniProt P08637 17-208).
T4 construct: extracellular domain; also called FcγRIIIa F; FcγRIIIa (F158); not shown: His tag attached to the C terminus
T4 sequence (P08637 17-208): as the sequence (P08637 17-208 F176V limits assumed) above, with V160F counted along it
Described as above. As to the method:
as §1, §2
Regarding B1, the “relative KD (KD of H240-Kn061/H240-Hl071/L73-k0 / KD of variant)” value came to 1.4.
With B2, the “relative KD (KD of H240-Kn061/H240-Hl071/L73-k0 / KD of variant)” value is 1.9.
On the same count and under the same terms, the same measure for B3: 1.3.

The next assay addresses T5, FcgRIIIa V extracellular domain with C-terminal His tag (human, UniProt P08637 17-208).
T5 construct: extracellular domain; also called FcγRIIIa V; FcγRIIIa (V158); not shown: His tag attached to the C terminus
The description is as above. Here is the method:
as §1, §2
Consider B1, for which the “relative KD (KD of H240-Kn061/H240-Hl071/L73-k0 / KD of variant)” value is 1.
Take B2: the “relative KD (KD of H240-Kn061/H240-Hl071/L73-k0 / KD of variant)” value is 1.6.
Same read-out and setting: the same measure for B3: 2.

The next assay addresses T6, FcgRIa (human, UniProt P12314 16-292).
T6 construct: extracellular domain; Expressed in FreeStyle293 cells and purified; used as analyte in Biacore; also called FcγRIa; FcγRI; not shown: His tag attached to the C terminus
The experiment in a line: SPR (Biacore), antibody captured on chip, FcgR extracellular domain as analyte. As to the method: (§3) Specifically, H240-Kn120 (SEQ ID NO: 99) resulting from introduction of S239M into H240-Kn067 and H240-Kn126 (SEQ ID NO: 100) resulting from introduction of Y235Q into H240-Kn120 were prepared according to the method described in Reference Example 1. […] Those described above were assayed for the binding to each FcgR according to the method described in Reference Example 8.
as §2, with “buffer. To regenerate and repeatedly use the chip, the antibodies captured onto the chip were washed off by reacting 10 mM glycine-HCl, pH 1.5.” for “buffer.”
What is called Kd is the free concentration of one partner at which half of the binding sites on the other are occupied at equilibrium, for simple one-to-one binding. A lower Kd goes with tighter binding. In the case of B4, the Kd worked out at 0.098 nM. This lies in the picomolar range.
On the same count and under the same terms, the same measure for B5: 0.37 nM.
On the same count and under the same terms, for B6 the value was 0.4 nM.

For a further assay, the target named is T7, FcgRIIa R (human, UniProt P12318 34-217).
T7 construct: extracellular domain; also called FcγRIIa R; FcγRIIa type R; not shown: His tag attached to the C terminus
T7 sequence (looked up): T1 sequence (looked up)
The description is as above. Here is the method:
as §3
as §2, with “buffer. To regenerate and repeatedly use the chip, the antibodies captured onto the chip were washed off by reacting 10 mM glycine-HCl, pH 1.5.” for “buffer.”
With B4, the Kd was found to be 29 nM.
The same measure, in the same setting: the same measure for B5: 17 nM.
In turn, B6 had a Kd of 76 nM.

The next assay concerns the target T8, FcgRIIa H (human, UniProt P12318 34-217).
T8 construct: extracellular domain; also called FcγRIIa H; FcγRIIa type H; not shown: His tag attached to the C terminus
T8 sequence (looked up): T1 sequence (looked up) with R134H
The description is as above. Here is the method: as §3
as §2, with “buffer. To regenerate and repeatedly use the chip, the antibodies captured onto the chip were washed off by reacting 10 mM glycine-HCl, pH 1.5.” for “buffer.”
As for B4, the Kd was found to be 46 nM.
In turn, B5 came in with a Kd of 59 nM.
For the molecule B6, the Kd amounted to 170 nM. This Kd lies about 2.9-fold higher than the previous one.

For the next assay, the target named is T9, FcgRIIb (human, UniProt P31994 43-217).
T9 construct: extracellular domain; Expressed in FreeStyle293 cells and purified; used as analyte in Biacore; also called FcγRIIb; CD32B; not shown: His tag attached to the C terminus
T9 sequence (looked up): T3 sequence (looked up)
The description is as above. As to the method: as §3
as §2, with “buffer. To regenerate and repeatedly use the chip, the antibodies captured onto the chip were washed off by reacting 10 mM glycine-HCl, pH 1.5.” for “buffer.”
B4: the affinity, expressed as Kd, was 380 nM.
On the same count and under the same terms, for B5 the value was 150 nM; for B6, 520 nM.

Another assay deals with T10, FcgRIIIa F (human, UniProt P08637 17-208).
T10 construct: extracellular domain; also called FcγRIIIa F; not shown: His tag attached to the C terminus
T10 sequence (P08637 17-208): as the sequence (P08637 17-208 F176V limits assumed) above, with V160F counted along it
The description is as above. Here is the method: as §3
as §2, with “buffer. To regenerate and repeatedly use the chip, the antibodies captured onto the chip were washed off by reacting 10 mM glycine-HCl, pH 1.5.” for “buffer.”
The molecule B4 displayed a Kd of 21 nM.
B5 yielded a Kd of 2.4 nM.
The same measure, in the same setting: for B6 the value was 3.7 nM.

Another assay concerns the target T11, FcgRIIIa V (human, UniProt P08637 17-208).
T11 construct: extracellular domain; also called FcγRIIIa V; not shown: His tag attached to the C terminus
The description is as above. As to the method:
as §3
as §2, with “buffer. To regenerate and repeatedly use the chip, the antibodies captured onto the chip were washed off by reacting 10 mM glycine-HCl, pH 1.5.” for “buffer.”
Molecule B4 gave a Kd of 6.8 nM.
On the same count and under the same terms, the same measure for B5: 0.66 nM.
In turn, B6 displayed a Kd of 0.64 nM.

(Values after patent US20180155451A1 (published 2018).)
